In general, IC50 refers to the concentration needed to halve the response being measured. Higher therefore signals a need for much substance.

This note sets out measurements from patent US20030143192A1 (Human Genome Sciences, published 2003).

The target of test [1] is T1, human CCR3 (human, UniProt P51677 1-355).
T1 construct: whole, on cells; also called chemokine receptor-3; hCCR3
T1 sequence (looked up): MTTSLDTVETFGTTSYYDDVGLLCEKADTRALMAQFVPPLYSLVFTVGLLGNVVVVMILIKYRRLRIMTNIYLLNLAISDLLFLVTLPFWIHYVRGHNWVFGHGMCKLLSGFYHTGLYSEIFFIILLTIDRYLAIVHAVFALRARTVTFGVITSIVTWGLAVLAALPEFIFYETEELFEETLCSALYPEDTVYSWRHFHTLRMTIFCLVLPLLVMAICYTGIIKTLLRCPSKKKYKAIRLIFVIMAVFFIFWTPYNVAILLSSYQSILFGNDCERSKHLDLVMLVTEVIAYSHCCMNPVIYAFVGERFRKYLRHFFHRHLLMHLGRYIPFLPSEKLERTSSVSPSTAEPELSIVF
Nature of the test: displacement of 0.1 nM 125I-MCP4 from purified human eosinophils (CCR3). Here is the method: (§1) After washing with binding buffer containing 0.5M NaCl, the percentage of radio-iodinated ligand remaining bound was calculated compared to assays in which no unlabeled chemokine was added. Each point is the mean of three identical incubations and standard error is included. (C) 2×10⁵ purified eosinophils were incubated for 2 hrs at room temperature in azide-containing binding buffer with 45 nM ¹²⁵I-Met-Ckβ7* plus 500 nM of the various unlabeled chemokines indicated at the bottom of the graph. Cells were washed twice with PBS and remaining ¹²⁵I-Met-Ckβ7* bound was counted. Results are the mean of three identical incubations represented as a percentage of the binding seen in the absence of competitor, and standard error is included.
(§2) Eosinophil ¹²⁵I-Chemokine Binding Assay. 2×10⁵ purified eosinophils were placed in each well of a 96 well plate in binding buffer (1 mM CaCl₂, 5 mM MgCl₂, 0.5% BSA, 0.05% sodium azide, 50 mM Hepes (pH 7.5)). Iodinated chemokine (final concentration of 0.1 nM ¹²⁵I-eotaxin or ¹²⁵I-MCP4, specific activity 2200 Ci/mmol (NEN, Boston, Mass.)) was added in the absence or presence of unlabeled chemokines to a final volume of 100 μl. […] The plates were dried and counted after addition of 50 μl of liquid scintillant in each well. […] Cells were then washed twice with ice cold PBS and counted in a Beckman Gamma 5500B counter. […]

Test [2] has as its target T2, human D6 chemokine receptor (human, UniProt O00590 1-384).
T2 construct: whole, on cells
T2 sequence (looked up): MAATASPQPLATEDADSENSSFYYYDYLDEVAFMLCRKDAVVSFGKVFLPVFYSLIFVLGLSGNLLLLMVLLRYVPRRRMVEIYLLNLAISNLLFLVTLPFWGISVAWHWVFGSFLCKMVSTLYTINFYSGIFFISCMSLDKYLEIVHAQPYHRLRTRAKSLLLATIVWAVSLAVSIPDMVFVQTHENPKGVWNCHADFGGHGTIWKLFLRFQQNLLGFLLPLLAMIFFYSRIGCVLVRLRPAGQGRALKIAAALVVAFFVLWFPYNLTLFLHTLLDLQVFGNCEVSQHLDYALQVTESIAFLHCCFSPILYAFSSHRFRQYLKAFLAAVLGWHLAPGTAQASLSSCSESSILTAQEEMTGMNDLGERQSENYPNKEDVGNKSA
The experiment in a line: displacement of 125I-MIP1α in binding assays on CHO cells expressing D6 (not shown). For orientation: In a radioligand displacement assay an active substance lowers the binding of a labelled ligand.

The target in test [3] is T1, human CCR3. Nature of the test: displacement of 0.1 nM 125I-eotaxin from 2x10^5 purified human eosinophils (CCR3), 60 min at room temperature. Here is the method: as §1, §2
Test [4] addresses T1, human CCR3. The experiment in a line: displacement of 0.1 nM 125I-eotaxin from purified human eosinophils (CCR3). As to the method: as §1, §2
Test [5] has as its target T1, human CCR3. The experiment in a line: homologous displacement of 0.1 nM 125I-MCP4 from purified human eosinophils (CCR3). As to the method: as §1, §2
The target in test [6] is T1, human CCR3. The experiment in a line: homologous displacement of 0.1 nM 125I-eotaxin from purified human eosinophils (CCR3). Here is the method:
as §1, §2

B1: Met-Ckβ7* (ligand)
chain: MQVGTNKELCCLVYTSWQIPQKFIVDYSETSPQCPKPGVILLTKRGRQICADPNKKWVQKYISDLKLMPEA
notes: E. coli-produced modified form of Ckβ7/MIP4: signal peptide removed, N-terminal Ala of the mature protein replaced by Met, C-terminus LKLMPEA; also called Met-22-87-Met-Pro-Glu-Ala; hg00701-e2
On to B1, for which the results for the IC50 with human CCR3 [1] and in the test with human CCR3 [3] were ~5 nM and ~6 nM, respectively. Further, in test [2], the binding result is “no binding (tested: 700 nM)”.

B2: MCP4 (ligand)
chain: not shown
notes: also called monocyte chemotactic protein-4; Ckβ-10
Regarding B2, the IC50 was ~60 nM with human CCR3 [4] and ~25 nM with human CCR3 [5].

B3: eotaxin (ligand)
chain: not shown
notes: also called human eotaxin
Regarding B3, the IC50 with human CCR3 [1] was ~5 nM; in the test with human CCR3 [6] it was ~10 nM.
